Test results: article doi:10.1101/2020.01.05.895227
Where a chain is given by its changes, count along the chain named.

B1: Unmethylated 60 bp DNA (3 CG), Cy5 (dsDNA)
DNA 1: CATGGCCTAAGCCGGACTGAATGAGCAAGCTTCCGGAGAATTCTGCCGGACTGCAGATGC
DNA 2: GCATCTGCAGTCCGGCAGAATTCTCCGGAAGCTTGCTCATTCAGTCCGGCTTAGGCCATG
B2: Unmethylated 60 bp DNA, one CG, Cy5 (dsDNA)
DNA 1: B1 DNA 1 with C13A, C47A
DNA 2: B1 DNA 2 with G14T, G48T
B3: Hemimethylated 60 bp DNA (3 CG), Cy5 (dsDNA)
DNA 1: B1 DNA 1
DNA 2: B1 DNA 2
modifications: 5mC at strand 1 positions 13, 34, 47

What was measured:
Experiment in all cases: EMSA
MBP-Dnmt5(345-747) = target: T1, MBP-Dnmt5(345-747) (Cryptococcus neoformans, UniProt J9VI03 345-747)
T1 sequence: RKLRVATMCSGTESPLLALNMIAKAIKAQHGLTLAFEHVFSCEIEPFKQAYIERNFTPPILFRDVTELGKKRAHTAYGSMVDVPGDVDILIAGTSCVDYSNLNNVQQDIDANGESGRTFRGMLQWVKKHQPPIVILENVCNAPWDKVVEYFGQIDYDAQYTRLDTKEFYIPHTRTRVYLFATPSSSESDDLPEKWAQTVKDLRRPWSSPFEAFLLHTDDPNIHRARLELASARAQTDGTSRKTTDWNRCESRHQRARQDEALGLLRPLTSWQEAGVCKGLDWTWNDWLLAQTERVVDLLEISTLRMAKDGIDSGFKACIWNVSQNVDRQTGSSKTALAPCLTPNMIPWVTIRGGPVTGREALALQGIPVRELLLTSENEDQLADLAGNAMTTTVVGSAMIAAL

Dnmt5 full-length [1] = target: T2, Dnmt5 full-length (Cryptococcus neoformans, UniProt J9VI03 1-2377)
Dnmt5 full-length [2] = target: T2, Dnmt5 full-length; remark: listed apart in the source
[3] = target: T3, MBP-Dnmt5(1-150, W87A, Y90A) (Cryptococcus neoformans, UniProt J9VI03 1-150, W87A;Y90A)
T3 sequence: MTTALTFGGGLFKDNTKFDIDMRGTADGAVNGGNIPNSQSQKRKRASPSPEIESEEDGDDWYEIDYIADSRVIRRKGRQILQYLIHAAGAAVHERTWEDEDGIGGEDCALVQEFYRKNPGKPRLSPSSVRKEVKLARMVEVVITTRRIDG

Row | Binder | Kd (MBP-Dnmt5(345-747)) [nM] | Kd (Dnmt5 full-length [1]) [nM] | binding signal (Dnmt5 full-length [2]) | binding result [3]
1 | B1 | 7 ± 3 | 20 ± 5 |  | 
2 | B2 |  |  | 1 reference; abasic DNA binds 5-fold tighter | 
3 | B3 | 6 ± 2 | < 1 |  | no binding
